Ten substances from patent US20200024330A1 can be followed below.

What all share (assay): cell-based or functional assay
Assay [1] concerns the target HIV-1 93RW029 envelope glycoprotein (Env) (HIV-1).
The target of assay [2] is HIV-1 94UG103 envelope glycoprotein (Env) (HIV-1).
Assay [3] concerns the target HIV-1 Env of isolate 92UG005 (clade D) (HIV-1).
The target in assay [4] is HIV-1 Env of isolate MGRM-D-004 (clade D) (HIV-1).
For assay [5], the target named is HIV-1 Env of isolate MGRM-D-012 (clade D) (HIV-1).
In assay [6] the target is HIV-1 Env of isolate MGRM-D-018 (clade D) (HIV-1).
Assay [7] concerns the target HIV-1 Env of isolate MGRM-D-021 (clade D) (HIV-1).
In assay [8] the target is HIV-1 Env of isolate MGRM-D-024 (clade D) (HIV-1).
In assay [9] the target is HIV-1 Env of isolate MGRM-G-016 (clade G pseudovirus) (HIV-1).
Assay [10] deals with HIV-1 Env of pseudovirus 6535.3 (Acute), clade B (HIV-1).
Assay [11] addresses HIV-1 Env of pseudovirus TRJ0.58 (Acute), clade B (HIV-1).
Assay [12] addresses HIV-1 JRCSF envelope glycoprotein (Env) on pseudovirus (HIV-1).
Assay [13] deals with HIV-1 MGRM-A-014 envelope glycoprotein (Env) (HIV-1).
The target of assay [14] is HIV-1 MGRM-C-009 Env (HIV-1).
Assay [15] addresses HIV-1 MGRM-C-013 Env (HIV-1).
For assay [16], the target named is HIV-1 MGRM-C-014 Env (HIV-1).
For assay [17], the target named is HIV-1 MGRM-F1-010 Env (pseudovirus) (HIV-1).
The target in assay [18] is HIV-1 MGRM-F1-014 Env (pseudovirus) (HIV-1).
In assay [19] the target is HIV-1 Env of isolate MGRM-A-008 (clade A), on pseudovirus (HIV-1).
Assay [20] addresses HIV-1 Env of isolate MGRM-AE-005 (CRF01_AE), on pseudovirus (HIV-1).
For assay [21], the target named is HIV-1 Env of isolate MGRM-AG-003 (CRF_AG), on pseudovirus (HIV-1).
Assay [22] addresses HIV-1 Env of isolate MGRM-AG-012 (CRF_AG), on pseudovirus (HIV-1).
Assay [23] concerns the target HIV-1 Env of isolate MGRM-C-006 (HIV-1).
Assay [24] deals with HIV-1 Env of isolate MGRM-C-027 (HIV-1).
The target in assay [25] is HIV-1 Env of isolate MGRM-Chronic-B-003 (HIV-1).
Assay [26] deals with HIV-1 Env of isolate MGRM-D-019 (HIV-1).
Assay [27] concerns the target HIV-1 Env of isolate MGRM-D-028 (subtype D), on pseudovirus (HIV-1).
In assay [28] the target is HIV-1 Env of isolate MGRM-D-029 (subtype D), on pseudovirus (HIV-1).
Assay [29] addresses HIV-1 Env of isolate MGRM-F1-013 (subtype F), on pseudovirus (HIV-1).
Assay [30] concerns the target HIV-1 JR-CSF Env K168A (HIV-1 (isolate JR-CSF)) (UniProt P20871).
The target of assay [31] is HIV-1 MGRM-C-026 envelope glycoprotein (Env) on pseudovirus (HIV-1).

The IC50 is the concentration that gives 50% inhibition. Read a high IC50 as lower potency.

Regarding 2F5 (antibody), the IC50 (µg/ml), pseudovirus neutralization in assay [1] is over 50 µg/mL; in assay [2], 1.92 µg/mL; in assay [3] it was 8.61 µg/mL; in assay [4], 2.3 µg/mL; in assay [5] it was 1.7 µg/mL; in assay [6] it was 4.05 µg/mL. In addition, the IC50 (µg/ml), pseudovirus neutralization in assay [7] was over 50 µg/mL; in [8], over 50 µg/mL; in [9] it was 16.8 µg/mL; in assay [10], 2.76 µg/mL; in assay [11], over 50 µg/mL; in assay [13], 1.43 µg/mL. Further, the IC50 (µg/ml), pseudovirus neutralization in assay [17] amounted to 14.6 µg/mL; in [18] it was 15.1 µg/mL. The same substance yielded an IC90 (pseudovirus neutralization) in assay [12] of 25.3 µg/mL. The figures for the IC50 in assay [14], in assay [15] and in assay [16] were over 50 µg/mL, 18.4 µg/mL and over 50 µg/mL, respectively.
With 2G12 (antibody), the IC50 (µg/ml), pseudovirus neutralization in assay [1] is over 50 µg/mL; in assay [2], 48.1 µg/mL; in assay [3], over 50 µg/mL; in assay [4] it was over 50 µg/mL; in [5], over 50 µg/mL; in assay [6] it was 0.12 µg/mL. The IC50 (µg/ml), pseudovirus neutralization was 23 µg/mL in [7]; over 50 µg/mL in assay [8]; over 50 µg/mL in assay [9]; 3.85 µg/mL in [10]; over 50 µg/mL in assay [11]; over 50 µg/mL in assay [13]. The IC50 (µg/ml), pseudovirus neutralization in [18] was over 50 µg/mL. Besides, in assay [12], the IC90 (pseudovirus neutralization) was determined as 5.38 µg/mL. Moreover, the IC50 in [14], in assay [15] and in [16] was over 50 µg/mL in each case.
For the substance 4E10 (antibody), the IC50 (µg/ml), pseudovirus neutralization in assay [1] came to 15.5 µg/mL; in assay [2] it was 4.97 µg/mL; in assay [3], 7.46 µg/mL; in assay [4] it was 1.58 µg/mL; in [5], 1.13 µg/mL; in assay [6], 3.9 µg/mL. The IC50 (µg/ml), pseudovirus neutralization was 13.3 µg/mL in [7]; 3.6 µg/mL in assay [8]; 1.02 µg/mL in assay [9]; 1.23 µg/mL in [10]; 11.9 µg/mL in assay [11]; 1.74 µg/mL in assay [13]. Also, the IC50 (µg/ml), pseudovirus neutralization in assay [17] was determined as 3.69 µg/mL; in [18], 7.36 µg/mL. In assay [12], this substance returned an IC90 (pseudovirus neutralization) of 44.1 µg/mL. The values for the IC50 in [14], in assay [15] and in assay [16] were 0.56 µg/mL, 2.1 µg/mL and 2.48 µg/mL, respectively.
For 1495_C14 (PGC14) (antibody), the IC50 (µg/ml), pseudovirus neutralization is 42 µg/mL in assay [1]; over 50 µg/mL in [2]; over 50 µg/mL in assay [3]; over 50 µg/mL in [4]; over 50 µg/mL in assay [5]; over 50 µg/mL in assay [6]. Besides, the IC50 (µg/ml), pseudovirus neutralization in [7] is over 50 µg/mL; in assay [8] it was over 50 µg/mL; in [9], over 50 µg/mL; in [10], 35 µg/mL; in assay [11], over 50 µg/mL; in [13], over 50 µg/mL. The IC50 (µg/ml), pseudovirus neutralization in assay [17] and in assay [18] was over 50 µg/mL each time. Further, the half-maximal inhibitory concentration (IC50) in assay [14], in assay [15] and in assay [16] was over 50 µg/mL throughout.
As to 5114_A19 (PGT-128) (antibody), the IC50, single-round pseudovirus neutralization in [19] was over 50 µg/mL; in [20], 0.032 µg/mL; in assay [21] it was 34.8 µg/mL; in assay [22], over 50 µg/mL. Moreover, the IC50 in assay [23] is 0.014 µg/mL; in assay [24], 0.081 µg/mL; in assay [25], 0.007 µg/mL; in assay [26], over 50 µg/mL. The IC50, pseudovirus neutralization in assay [27] was over 50 µg/mL; in assay [28], over 50 µg/mL; in assay [29], 12.7 µg/mL. In assay [30], this substance yielded a Fold IC50 increase relative to wild-type of 1.1 fold.
Consider 5136_H01 (PGT-131) (antibody), for which the IC50, single-round pseudovirus neutralization in [19] was over 50 µg/mL; in assay [20], 0.017 µg/mL; in assay [21], 2.92 µg/mL; in assay [22] it was over 50 µg/mL. The IC50 in [23] was 0.611 µg/mL; in [24], 0.065 µg/mL; in assay [25], over 50 µg/mL; in [26], over 50 µg/mL. Besides, the IC50, pseudovirus neutralization in assay [27], in [28] and in assay [29] was over 50 µg/mL throughout. This substance also had a Fold IC50 increase relative to wild-type in [30] of 1.7 fold.
For 5147_N06 (PGT-130) (antibody), the neutralization IC50 in [3] worked out at 0.474 µg/mL; in assay [6], 0.0378 µg/mL. Further, the results for the neutralization IC80 in [3] and in [6] were over 10 µg/mL and 0.289 µg/mL, respectively. In addition, the neutralization IC90 in assay [3] is over 10 µg/mL; in [6], 2.31 µg/mL. In addition, the neutralization IC95 in assay [3] and in [6] was over 10 µg/mL in each case. In addition, the IC50, single-round pseudovirus neutralization in [19] was over 50 µg/mL; in [20], 0.006 µg/mL; in assay [21], 0.041 µg/mL; in assay [22] it was over 50 µg/mL. Further, the IC50 was 0.095 µg/mL in assay [23], 0.008 µg/mL in assay [24], over 50 µg/mL in [25] and over 50 µg/mL in assay [26]. Further, the results for the IC50, pseudovirus neutralization in assay [27], in assay [28] and in [29] were 0.825 µg/mL, over 50 µg/mL and over 50 µg/mL, respectively. Further, the Fold IC50 increase relative to wild-type in assay [30] is 1.2 fold. This substance displayed an IC50 (ug/ml), neutralizing activity in assay [31] of 0.0173 µg/mL.
Turning to 5329_C19 (PGT-136) (antibody), the IC50, single-round pseudovirus neutralization in assay [19], in assay [20], in assay [21] and in assay [22] was over 50 µg/mL throughout. The IC50 in assay [23], in assay [24], in [25] and in assay [26] was over 50 µg/mL each time. The IC50, pseudovirus neutralization in assay [27], in assay [28] and in [29] was over 50 µg/mL in each case.
As for 5343_B08 (PGT-135) (antibody), the IC50, single-round pseudovirus neutralization in assay [19] was over 50 µg/mL; in assay [20] it was over 50 µg/mL; in assay [21], over 50 µg/mL; in assay [22], 41.9 µg/mL. Also, the IC50 in assay [23], in assay [24], in assay [25] and in assay [26] was over 50 µg/mL each time. The IC50, pseudovirus neutralization was over 50 µg/mL in assay [27], 30.8 µg/mL in assay [28] and 21.1 µg/mL in assay [29]. Further, in assay [30], the Fold IC50 increase relative to wild-type is 0.4 fold.
On to 5345_I01 (PGT-137) (antibody), for which the IC50, single-round pseudovirus neutralization in [19], in [20], in [21] and in assay [22] was over 50 µg/mL each time. Besides, the IC50 in [23], in assay [24], in [25] and in assay [26] was over 50 µg/mL in each case. For the same substance, the IC50, pseudovirus neutralization in [27], in [28] and in assay [29] was over 50 µg/mL each time.
